Measured values: PMC8748714 (2022)
Numbering of substitutions follows the chain as printed. Names and notes keep the numbering of the source. Read-outs that look alike come from different tables or passages of the source.

Columns and labels:
[1] = molecular target: wild-type cMyc-GLP-1R (human) (UniProt P43220)
[2] = molecular target: GLP-1R M204A (Homo sapiens)
[3] = molecular target: cMyc-GLP-1R K197A (human) (UniProt P43220)
[4] = molecular target: GLP-1R P137A (Homo sapiens)
[5] = molecular target: GLP-1R H212A (Homo sapiens)
[6] = molecular target: GLP-1R L201A (Homo sapiens)
[7] = molecular target: cMyc-GLP-1R Y148A (human) (UniProt P43220)
[8] = molecular target: GLP-1R L141A (Homo sapiens)
[9] = molecular target: GLP-1R Q211A (Homo sapiens)
[10] = molecular target: GLP-1R Q210A (Homo sapiens)
[11] = molecular target: GLP-1R K202A (Homo sapiens)
[12] = molecular target: GLP-1R D198A (Homo sapiens)
[13] = molecular target: GLP-1R L144A (Homo sapiens)
[14] = molecular target: GLP-1R V194A (Homo sapiens)
[15] = molecular target: GLP-1R Y205A (Homo sapiens)
[16] = molecular target: GLP-1R L142A (Homo sapiens)
[17] = molecular target: cMyc-GLP-1R Y152A (human) (UniProt P43220)
[18] = molecular target: GLP-1R S206A (Homo sapiens)
[19] = molecular target: GLP-1R Y145A (Homo sapiens)
[20] = molecular target: cMyc-GLP-1R R190A (human) (UniProt P43220)
[21] = molecular target: GLP-1R S193A (Homo sapiens)
[22] = molecular target: GLP-1R E138A (Homo sapiens)
[23] = molecular target: cMyc-GLP-1R Y148A (human) (UniProt P43220); remark: listed apart in the source
exendin-P5 [24] = experiment: radioligand competition binding on whole cells; conditions: parent: est. 0; read off a plot
exendin-P5 [25] = experiment: radioligand competition binding on whole cells; conditions: parent: est. 0; read off a plot; remark: listed apart in the source
exendin-4, P26349 = experiment: radioligand competition binding on whole cells; conditions: chain shown with the change;; parent: est. 0; read off a plot

exendin-4 (from UniProt P26349 48-87)
IC50 [1]: 0.891 nM | IC50 [2]: 17.8 nM | IC50 [3]: 25.1 nM | IC50 [4]: 3.89 nM | IC50 [5]: 0.479 nM | IC50 [6]: 3.47 nM | IC50 [7]: 7.76 nM | IC50 [8]: 4.9 nM | IC50 [9]: 4.37 nM | IC50 [10]: 2.09 nM | IC50 [11]: 1.91 nM | IC50 [12]: 162 nM | IC50 [13]: 0.741 nM | IC50 [14]: 11.7 nM | IC50 [15]: 8.91 nM | IC50 [16]: 0.692 nM | IC50 [17]: 38 nM | IC50 [18]: 2.19 nM | IC50 [19]: 0.617 nM | IC50 [20]: 407 nM | IC50 [21]: 1.38 nM | IC50 [22]: 0.661 nM

exendin-P5
IC50 (GLP-1R L141A): 102 nM | IC50 (GLP-1R V194A): 182 nM | IC50 (GLP-1R Q211A): 240 nM | IC50 (GLP-1R L201A): 251 nM | IC50 (GLP-1R E138A): 60.3 nM | IC50 (GLP-1R Q210A): 501 nM | IC50 (GLP-1R M204A): 67.6 nM | IC50 (GLP-1R L144A): 257 nM | IC50 (GLP-1R Y145A): 46.8 nM | IC50 (GLP-1R Y205A): 69.2 nM | IC50 (GLP-1R K202A): 170 nM | IC50 (GLP-1R H212A): 282 nM | IC50 (GLP-1R D198A): 191 nM | IC50 (GLP-1R L142A): 537 nM | IC50 (GLP-1R S206A): 269 nM | IC50 (GLP-1R S193A): 75.9 nM | IC50 (GLP-1R P137A): 437 nM | IC50 [23]: 135 nM

wild-type cMyc-GLP-1R (from UniProt P43220) E364A
log10 ratio (exendin-P5 [24]): -1 pIC50 ΔWT | log10 ratio (exendin-P5 [25]): -0.95 pIC50 ΔWT

wild-type cMyc-GLP-1R (from UniProt P43220) W297A
log10 ratio (exendin-P5 [24]): -1.2 pIC50 ΔWT | log10 ratio (exendin-P5 [25]): -1.3 pIC50 ΔWT

wild-type cMyc-GLP-1R (from UniProt P43220) E387A
log10 ratio (exendin-P5 [24]): -1.1 pIC50 ΔWT | log10 ratio (exendin-P5 [25]): -1.1 pIC50 ΔWT

B1: wild-type cMyc-GLP-1R, P43220 K197A (protein)
chain: RPQGATVSLWETVQKWREYRRQCQRSLTEDPPPATDLFCNRTFDEYACWPDGEPGSFVNVSCPWYLPWASSVPQGHVYRFCTAEGLWLQKDNSSLPWRDLSECEESKRGERSSPEEQLLFLYIIYTVGYALSFSALVIASAILLGFRHLHCTRNYIHLNLFASFILRALSVFIADAALKWMYSTAAQQHQWDGLLSYQDSLSCRLVFLLMQYCVAANYYWLLVEGVYLYTLLAFSVLSEQWIFRLYVSIGWGVPLLFVVPWGIVKYLYEDEGCWTRNSNMNYWLIIRLPILFAIGVNFLIFVRVICIVVSKLKANLMCKTDIKCRLAKSTLTLIPLLGTHEVIFAFVMDEHARGTLRFIKLFTELSFTSFQGLMVAILYCFVNNEVQLEFRKSWERWRLEHLHIQRDSSMKPLKCPTSSLSSGATAGSSMYTATCQASCS
log10 ratio (exendin-4, P26349): -1.5 pIC50 ΔWT

B2: wild-type cMyc-GLP-1R, P43220 R190A (protein)
chain: B1 chain with R167A, A174K
log10 ratio (exendin-4, P26349): -2.6 pIC50 ΔWT

B3: wild-type cMyc-GLP-1R, P43220 W297A (protein)
chain: B1 chain with A174K, W274A
log10 ratio (exendin-4, P26349): -1.5 pIC50 ΔWT
